Here are results for eleven molecules from PMC5015263, “Casitas B-lineage lymphoma linker helix mutations found in myeloproliferative neoplasms affect conformation” (BMC Biology, 2016).

This assay addresses T1, UbcH5B S22R C85K–Ub (UniProt P62837 1-147; P0CG47 1-76, S22R | C85K, conjugated to Ub via an isopeptide bond (non-hydrolyzable amide linkage) | conjugated to UbcH5B via an isopeptide bond).
T1 construct: E2 ubiquitin-conjugating enzyme UbcH5B; ubiquitin (Ub); also called UbcH5B–Ub; E2–Ub; source: expressed, generated and purified as described previously [7]
Nature of the assay: SPR; GST-Cbl variants coupled to CM-5 chips; UbcH5B–Ub as analyte at 0–120 μM; Biacore T200. The note with it: both partners purified.

A word on the Kd: it is the concentration at which binding is half-saturated. A lower Kd goes with higher affinity.

B1: His-GST-N-Cbl wild-type (residues 47-435) (domain or fragment, UniProt P22681 47-435, looked up)
chain: PPGTVDKKMVEKCWKLMDKVVRLCQNPKLALKNSPPYILDLLPDTYQHLRTILSRYEGKMETLGENEYFRVFMENLMKKTKQTISLFKEGKERMYEENSQPRRNLTKLSLIFSHMLAELKGIFPSGLFQGDTFRITKADAAEFWRKAFGEKTIVPWKSFRQALHEVHPISSGLEAMALKSTIDLTCNDYISVFEFDIFTRLFQPWSSLLRNWNSLAVTHPGYMAFLTYDEVKARLQKFIHKPGSYIFRLSCTRLGQWAIGYVTADGNILQTIPHNKPLFQALIDGFREGFYLFPDGRNQNPDLTGLCEPTPQDHIKVTQEQYELYCEMGSTFQLCKICAENDKDVKIEPCGHLMCTSCLTSWQESEGQGCPFCRCEIKGTEPIVVDPFD
notes: Cbl (c-Cbl), N-terminal fragment with TKBD, linker helix region and RING domain (N-Cbl), residues 47-435; Modified pGEX4T1 with N-terminal His-GST tag followed by a thrombin or TEV cleavage site; tag not cleaved for SPR; also called WT; wild-type N-Cbl; not shown: His, N-terminal, kept; GST, N-terminal, kept
As for B1, the affinity, expressed as Kd, was 84 µM.

B2: His-GST-N-Cbl Y371S (residues 47-435) (domain or fragment, UniProt P22681 47-435, looked up)
chain: PPGTVDKKMVEKCWKLMDKVVRLCQNPKLALKNSPPYILDLLPDTYQHLRTILSRYEGKMETLGENEYFRVFMENLMKKTKQTISLFKEGKERMYEENSQPRRNLTKLSLIFSHMLAELKGIFPSGLFQGDTFRITKADAAEFWRKAFGEKTIVPWKSFRQALHEVHPISSGLEAMALKSTIDLTCNDYISVFEFDIFTRLFQPWSSLLRNWNSLAVTHPGYMAFLTYDEVKARLQKFIHKPGSYIFRLSCTRLGQWAIGYVTADGNILQTIPHNKPLFQALIDGFREGFYLFPDGRNQNPDLTGLCEPTPQDHIKVTQEQYELSCEMGSTFQLCKICAENDKDVKIEPCGHLMCTSCLTSWQESEGQGCPFCRCEIKGTEPIVVDPFD
notes: Cbl (c-Cbl), N-terminal fragment with TKBD, linker helix region and RING domain (N-Cbl), residues 47-435; mutation identified in MDS/MPN clinical samples; Tag not cleaved for SPR; not shown: His, N-terminal, kept; GST, N-terminal, kept
B2 showed a Kd of 16 µM. Against the preceding molecule, the Kd is about 5.2-fold lower.

B3: His-GST-N-Cbl Y371A (residues 47-435) (domain or fragment, UniProt P22681 47-435, looked up)
chain: PPGTVDKKMVEKCWKLMDKVVRLCQNPKLALKNSPPYILDLLPDTYQHLRTILSRYEGKMETLGENEYFRVFMENLMKKTKQTISLFKEGKERMYEENSQPRRNLTKLSLIFSHMLAELKGIFPSGLFQGDTFRITKADAAEFWRKAFGEKTIVPWKSFRQALHEVHPISSGLEAMALKSTIDLTCNDYISVFEFDIFTRLFQPWSSLLRNWNSLAVTHPGYMAFLTYDEVKARLQKFIHKPGSYIFRLSCTRLGQWAIGYVTADGNILQTIPHNKPLFQALIDGFREGFYLFPDGRNQNPDLTGLCEPTPQDHIKVTQEQYELACEMGSTFQLCKICAENDKDVKIEPCGHLMCTSCLTSWQESEGQGCPFCRCEIKGTEPIVVDPFD
notes: Cbl (c-Cbl), N-terminal fragment with TKBD, linker helix region and RING domain (N-Cbl), residues 47-435; Tag not cleaved for SPR; not shown: His, N-terminal, kept; GST, N-terminal, kept
For B3, the Kd turned out to be 30 µM.

B4: His-GST-pTyr371-N-Cbl Y368F (residues 47-435) (domain or fragment, UniProt P22681 47-435, looked up)
chain: PPGTVDKKMVEKCWKLMDKVVRLCQNPKLALKNSPPYILDLLPDTYQHLRTILSRYEGKMETLGENEYFRVFMENLMKKTKQTISLFKEGKERMYEENSQPRRNLTKLSLIFSHMLAELKGIFPSGLFQGDTFRITKADAAEFWRKAFGEKTIVPWKSFRQALHEVHPISSGLEAMALKSTIDLTCNDYISVFEFDIFTRLFQPWSSLLRNWNSLAVTHPGYMAFLTYDEVKARLQKFIHKPGSYIFRLSCTRLGQWAIGYVTADGNILQTIPHNKPLFQALIDGFREGFYLFPDGRNQNPDLTGLCEPTPQDHIKVTQEQFELYCEMGSTFQLCKICAENDKDVKIEPCGHLMCTSCLTSWQESEGQGCPFCRCEIKGTEPIVVDPFD
modifications: phosphotyrosine at 371
notes: Cbl (c-Cbl), N-terminal fragment with TKBD, linker helix region and RING domain (N-Cbl), residues 47-435; Y368F is required for homogeneous phosphorylation at Tyr371; also called pY371 Y368F; source: generated as described previously [6]; not shown: His, N-terminal, kept; GST, N-terminal, kept
The molecule B4 registered a Kd of 2.6 µM.

B5: His-GST-N-Cbl Y371H (residues 47-435) (domain or fragment, UniProt P22681 47-435, looked up)
chain: PPGTVDKKMVEKCWKLMDKVVRLCQNPKLALKNSPPYILDLLPDTYQHLRTILSRYEGKMETLGENEYFRVFMENLMKKTKQTISLFKEGKERMYEENSQPRRNLTKLSLIFSHMLAELKGIFPSGLFQGDTFRITKADAAEFWRKAFGEKTIVPWKSFRQALHEVHPISSGLEAMALKSTIDLTCNDYISVFEFDIFTRLFQPWSSLLRNWNSLAVTHPGYMAFLTYDEVKARLQKFIHKPGSYIFRLSCTRLGQWAIGYVTADGNILQTIPHNKPLFQALIDGFREGFYLFPDGRNQNPDLTGLCEPTPQDHIKVTQEQYELHCEMGSTFQLCKICAENDKDVKIEPCGHLMCTSCLTSWQESEGQGCPFCRCEIKGTEPIVVDPFD
notes: as for B2
Molecule B5 registered a Kd of 39 µM.

B6: His-GST-N-Cbl Y368F (residues 47-435) (domain or fragment, UniProt P22681 47-435, looked up)
chain: PPGTVDKKMVEKCWKLMDKVVRLCQNPKLALKNSPPYILDLLPDTYQHLRTILSRYEGKMETLGENEYFRVFMENLMKKTKQTISLFKEGKERMYEENSQPRRNLTKLSLIFSHMLAELKGIFPSGLFQGDTFRITKADAAEFWRKAFGEKTIVPWKSFRQALHEVHPISSGLEAMALKSTIDLTCNDYISVFEFDIFTRLFQPWSSLLRNWNSLAVTHPGYMAFLTYDEVKARLQKFIHKPGSYIFRLSCTRLGQWAIGYVTADGNILQTIPHNKPLFQALIDGFREGFYLFPDGRNQNPDLTGLCEPTPQDHIKVTQEQFELYCEMGSTFQLCKICAENDKDVKIEPCGHLMCTSCLTSWQESEGQGCPFCRCEIKGTEPIVVDPFD
notes: as for B3
Molecule B6 had a Kd of 49 µM.

B7: His-GST-N-Cbl Y371F (residues 47-435) (domain or fragment, UniProt P22681 47-435, looked up)
chain: PPGTVDKKMVEKCWKLMDKVVRLCQNPKLALKNSPPYILDLLPDTYQHLRTILSRYEGKMETLGENEYFRVFMENLMKKTKQTISLFKEGKERMYEENSQPRRNLTKLSLIFSHMLAELKGIFPSGLFQGDTFRITKADAAEFWRKAFGEKTIVPWKSFRQALHEVHPISSGLEAMALKSTIDLTCNDYISVFEFDIFTRLFQPWSSLLRNWNSLAVTHPGYMAFLTYDEVKARLQKFIHKPGSYIFRLSCTRLGQWAIGYVTADGNILQTIPHNKPLFQALIDGFREGFYLFPDGRNQNPDLTGLCEPTPQDHIKVTQEQYELFCEMGSTFQLCKICAENDKDVKIEPCGHLMCTSCLTSWQESEGQGCPFCRCEIKGTEPIVVDPFD
notes: as for B3
For the molecule B7, the Kd came out at 84 µM.

B8: His-GST-N-Cbl M222E (residues 47-435) (domain or fragment, UniProt P22681 47-435, looked up)
chain: PPGTVDKKMVEKCWKLMDKVVRLCQNPKLALKNSPPYILDLLPDTYQHLRTILSRYEGKMETLGENEYFRVFMENLMKKTKQTISLFKEGKERMYEENSQPRRNLTKLSLIFSHMLAELKGIFPSGLFQGDTFRITKADAAEFWRKAFGEKTIVPWKSFRQALHEVHPISSGLEAEALKSTIDLTCNDYISVFEFDIFTRLFQPWSSLLRNWNSLAVTHPGYMAFLTYDEVKARLQKFIHKPGSYIFRLSCTRLGQWAIGYVTADGNILQTIPHNKPLFQALIDGFREGFYLFPDGRNQNPDLTGLCEPTPQDHIKVTQEQYELYCEMGSTFQLCKICAENDKDVKIEPCGHLMCTSCLTSWQESEGQGCPFCRCEIKGTEPIVVDPFD
notes: as for B3
For the molecule B8, the Kd turned out to be 14 µM.

B9: His-GST-N-Cbl Y371D (residues 47-435) (domain or fragment, UniProt P22681 47-435, looked up)
chain: PPGTVDKKMVEKCWKLMDKVVRLCQNPKLALKNSPPYILDLLPDTYQHLRTILSRYEGKMETLGENEYFRVFMENLMKKTKQTISLFKEGKERMYEENSQPRRNLTKLSLIFSHMLAELKGIFPSGLFQGDTFRITKADAAEFWRKAFGEKTIVPWKSFRQALHEVHPISSGLEAMALKSTIDLTCNDYISVFEFDIFTRLFQPWSSLLRNWNSLAVTHPGYMAFLTYDEVKARLQKFIHKPGSYIFRLSCTRLGQWAIGYVTADGNILQTIPHNKPLFQALIDGFREGFYLFPDGRNQNPDLTGLCEPTPQDHIKVTQEQYELDCEMGSTFQLCKICAENDKDVKIEPCGHLMCTSCLTSWQESEGQGCPFCRCEIKGTEPIVVDPFD
notes: as for B2
In turn, B9 returned a Kd of 10 µM.

B10: His-GST-N-Cbl Y371C (residues 47-435) (domain or fragment, UniProt P22681 47-435, looked up)
chain: PPGTVDKKMVEKCWKLMDKVVRLCQNPKLALKNSPPYILDLLPDTYQHLRTILSRYEGKMETLGENEYFRVFMENLMKKTKQTISLFKEGKERMYEENSQPRRNLTKLSLIFSHMLAELKGIFPSGLFQGDTFRITKADAAEFWRKAFGEKTIVPWKSFRQALHEVHPISSGLEAMALKSTIDLTCNDYISVFEFDIFTRLFQPWSSLLRNWNSLAVTHPGYMAFLTYDEVKARLQKFIHKPGSYIFRLSCTRLGQWAIGYVTADGNILQTIPHNKPLFQALIDGFREGFYLFPDGRNQNPDLTGLCEPTPQDHIKVTQEQYELCCEMGSTFQLCKICAENDKDVKIEPCGHLMCTSCLTSWQESEGQGCPFCRCEIKGTEPIVVDPFD
notes: as for B2
In turn, B10 displayed a Kd of 36 µM.

B11: His-GST-N-Cbl Y371E (residues 47-435) (domain or fragment, UniProt P22681 47-435, looked up)
chain: PPGTVDKKMVEKCWKLMDKVVRLCQNPKLALKNSPPYILDLLPDTYQHLRTILSRYEGKMETLGENEYFRVFMENLMKKTKQTISLFKEGKERMYEENSQPRRNLTKLSLIFSHMLAELKGIFPSGLFQGDTFRITKADAAEFWRKAFGEKTIVPWKSFRQALHEVHPISSGLEAMALKSTIDLTCNDYISVFEFDIFTRLFQPWSSLLRNWNSLAVTHPGYMAFLTYDEVKARLQKFIHKPGSYIFRLSCTRLGQWAIGYVTADGNILQTIPHNKPLFQALIDGFREGFYLFPDGRNQNPDLTGLCEPTPQDHIKVTQEQYELECEMGSTFQLCKICAENDKDVKIEPCGHLMCTSCLTSWQESEGQGCPFCRCEIKGTEPIVVDPFD
notes: as for B3
Turning to B11, the Kd was determined as 9 µM.
